Data as given in patent US20160251695.

T1: α-fructosyl-valyl-histidyl-leucyl-threonyl-proryl-glutamic acid
T1 chain: VHLTPE

T2: α-fructosyl-valyl-histidine
T2 chain: VH


Columns and labels:
[1] = molecular target: T1, α-fructosyl-valyl-histidyl-leucyl-threon …; conditions: for αF6P oxidation activity: scale: relative value
[2] = molecular target: T2, α-fructosyl-valyl-histidine

Chain of hemoglobin A1c, P68871 (P68871 2-147, chain 1 of 2): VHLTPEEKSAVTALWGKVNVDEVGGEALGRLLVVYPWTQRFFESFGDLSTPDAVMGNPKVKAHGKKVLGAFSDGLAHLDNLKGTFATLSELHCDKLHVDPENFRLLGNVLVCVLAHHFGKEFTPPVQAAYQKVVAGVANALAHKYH
Chain of hemoglobin A1c, P68871 (chain, as listed by the source, chain 2 of 2): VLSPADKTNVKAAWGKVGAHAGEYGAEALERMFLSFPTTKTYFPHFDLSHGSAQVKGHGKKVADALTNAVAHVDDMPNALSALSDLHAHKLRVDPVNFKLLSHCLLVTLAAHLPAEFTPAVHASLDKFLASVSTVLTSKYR

Protein	Specific activity (U/mg), 1 mM αF6P [1]	αF6P oxidation activity [1]	Specific activity (U/mg), 1 mM αFVH [2]	further results
EFP-T5-62D/63H/106K/110L/113K/355S (protein) MAHSRASTKVVVVGGGGTIGSSTALHLIRSGYTPSNITVLDVYKTPSLQSAGHDLNKIMGIDHRNGPDLQLSLESLDMWQNDELFKPFFHQVGMIDCSSSKEGIEKLRRLYQKLLDAGIGLEKTNVWLESEDEILAKAPNFTREQVKGWKGLFCTDGGWLAAAKAINAIGIFLQDKGVKFGFGDAGTFQQPLFAADGKTCIGLETTDGTKYFADKVVLAAGAWSPTLVDLEDQCVSKAWVFAHIQLTPKEADAYKNVPVVYDGEYGFFFEPDEYGVIKVCDEFPGFSRFKLHQPYGAASPKMISVPRSHAKHPTDTYPDASEVTIRKAIARFLPEFKDKELFNRTMCWCTDTADSNLLICEHPKWKNFILATGDSGHSFKLLPNIGKYVVELLEGSLSQEMAGAWRWRPGGDALRSRRGAPAKDLAEMPGWKHDAHL	1.12 U/mg	–	–	ΔA at 751 nm against HbA1c concentration; acid-treated sample (Reagent D1, Reagent F2) (hemoglobin A1c, P68871): Amadoriase 28 from EFP-T5 exhibiting high specific activity on αF6P was also found to act directly on HbA1c (FIG. 6-3)
CFP-T7 (protein) MTSNRADTRVIVVGGGGTIGSSTALHLVRSGYAPANITVLDTFEIPSAQSAGHDLNKIMGIRLRNKVDLQMSLEARQMWKEDELFQPFFHNTGRMDCEHTPEGIEDLKKQYQALHDAGAGLEKTHAWLDNEDEILSKMPLLQRDQIQGWKAIWSQDGGWLAAAKAINAIGQFLKERGVKFGFGGAGSFKQPLFDDEGTTCIGVETADGTKYYADKVVLAAGAWSPTLVDLEDQCCSKAWVYAHIQLTPEEAAEYKGVPVVYNGEFGFFFEPDEFGVIKVCDEFPGFSRFKEHQPYGAPSPKRISVPRSHAKHPTDTYPDASEVSIKKAIATFLPRFQDKELFNRALCWCTDTADAALLMCEHPKWKNFILATGDSGHSFKILPNVGKYVVELIEGRLPEEMAYQWRWRPGGDALKSRRAAPPKDLADMPGWKHDPKL	0 U/mg	0	16.5 U/mg	αFVH oxidation activity [2]: CFP-T7 exhibited αFV oxidation activity and αFVH oxidation activity; ΔA at 751 nm (hydrogen peroxide generated upon oxidation of the HbA1c β-chain amino terminus) against HbA1c concentration; heat-treated sample (hemoglobin A1c, P68871): When Reagent C2 was used, however, no correlation was observed between the HbA1c concentration and ΔA
CFP-T7-H35 (protein) MTSNRADTRVIVVGGGGTIGSSTALHLVRSGYAPANITVLDTFEIPSAQSAGHDLNKIMGIDHRNKVDLQMSLEARQMWKEDELFQPFFHNTGRMDCEHTPKGIEKLKKLYQKLHDAGAGLEKTHAWLDNEDEILSKMPLLQRDQIQGWKAIWSQDGGWLAAAKAINAIGQFLKERGVKFGFGGAGSFKQPLFDDEGTTCIGVETADGTKYYADKVVLAAGAWSPTLVDLEDQCCSKAWVYAHIQLTPEEAAEYKGVPVVYNGEFGFFFEPDEFGVIKVCDEFPGFSRFKEHQPYGAPSPKRISVPRSHAKHPTDTYPDASEVSIKKAIATFLPRFQDKELFNRALCWCTDTADSALLMCEHPKWKNFILATGDSGHSFKILPNVGKYVVELIEGRLPEEMAYQWRWRPGGDALKSRRAAPPKDLADMPGWKHDPKL	4.27 U/mg	–	1.9 U/mg	specific activity on αF6P, fold over FAOAo2 (Comparative Example 2) [1]: 1.940 times (Amadoriase 25/Comparative Example 2); αF6P oxidation activity ratio (relative value (CFP-T7-H28 = 100)) [1]: 206; ΔA at 751 nm (hydrogen peroxide generated upon oxidation of the HbA1c β-chain amino terminus) against HbA1c concentration; heat-treated sample (hemoglobin A1c, P68871): When Reagent C1 was used, a good correlation was established between the HbA1c concentration and ΔA; ΔA at 751 nm against HbA1c concentration; acid-treated sample (Reagent D1 or D2, Reagent F1) (hemoglobin A1c, P68871): In both cases where the sample was diluted with either Reagent D1 or Reagent D2, a good correlation was established between the HbA1c concentration and ΔA
CFP-T7-H1 (protein) MTSNRADTRVIVVGGGGTIGSSTALHLVRSGYAPANITVLDTFEIPSAQSAGHDLNKIMGIALRNKVDLQMSLEARQMWKEDELFQPFFHNTGRMDCEHTPEGIEDLKKQYQALHDAGAGLEKTHAWLDNEDEILSKMPLLQRDQIQGWKAIWSQDGGWLAAAKAINAIGQFLKERGVKFGFGGAGSFKQPLFDDEGTTCIGVETADGTKYYADKVVLAAGAWSPTLVDLEDQCCSKAWVYAHIQLTPEEAAEYKGVPVVYNGEFGFFFEPDEFGVIKVCDEFPGFSRFKEHQPYGAPSPKRISVPRSHAKHPTDTYPDASEVSIKKAIATFLPRFQDKELFNRALCWCTDTADAALLMCEHPKWKNFILATGDSGHSFKILPNVGKYVVELIEGRLPEEMAYQWRWRPGGDALKSRRAAPPKDLADMPGWKHDPKL	–	0.0316	–	αFVH oxidation activity [2]: exhibited αF6P oxidation activity, in addition αFV oxidation activity and αFVH oxidation activity
CFP-T7-H21 (protein) MTSNRADTRVIVVGGGGTIGSSTALHLVRSGYAPANITVLDTFEIPSAQSAGHDLNKIMGIDLRNKVDLQMSLEARQMWKEDELFQPFFHNTGRMDCEHTPEGIEKLKKLYQRLHDAGAGLEKTHAWLDNEDEILSKMPLLQRDQIQGWKAIWSQDGGWLAAAKAINAIGQFLKERGVKFGFGGAGSFKQPLFDDEGTTCIGVETADGTKYYADKVVLAAGAWSPTLVDLEDQCCSKAWVYAHIQLTPEEAAEYKGVPVVYNGEFGFFFEPDEFGVIKVCDEFPGFSRFKEHQPYGAPSPKRISVPRSHAKHPTDTYPDASEVSIKKAIATFLPRFQDKELFNRALCWCTDTADAALLMCEHPKWKNFILATGDSGHSFKILPNVGKYVVELIEGRLPEEMAYQWRWRPGGDALKSRRAAPPKDLADMPGWKHDPKL	0.795 U/mg	20.8	4.05 U/mg	–
CFP-T7-H20 (protein) MTSNRADTRVIVVGGGGTIGSSTALHLVRSGYAPANITVLDTFEIPSAQSAGHDLNKIMGIDLRNKVDLQMSLEARQMWKEDELFQPFFHNTGRMDCEHTPEGIEKLKKLYQKLHDAGAGLEKTHAWLDNEDEILSKMPLLQRDQIQGWKAIWSQDGGWLAAAKAINAIGQFLKERGVKFGFGGAGSFKQPLFDDEGTTCIGVETADGTKYYADKVVLAAGAWSPTLVDLEDQCCSKAWVYAHIQLTPEEAAEYKGVPVVYNGEFGFFFEPDEFGVIKVCDEFPGFSRFKEHQPYGAPSPKRISVPRSHAKHPTDTYPDASEVSIKKAIATFLPRFQDKELFNRALCWCTDTADAALLMCEHPKWKNFILATGDSGHSFKILPNVGKYVVELIEGRLPEEMAYQWRWRPGGDALKSRRAAPPKDLADMPGWKHDPKL	0.85 U/mg	20.5	4.28 U/mg	αF6P oxidation activity ratio (relative value (CFP-T7-H20 = 100)) [1]: 100
CFP-T7-62D (protein) MTSNRADTRVIVVGGGGTIGSSTALHLVRSGYAPANITVLDTFEIPSAQSAGHDLNKIMGIDLRNKVDLQMSLEARQMWKEDELFQPFFHNTGRMDCEHTPEGIEDLKKQYQALHDAGAGLEKTHAWLDNEDEILSKMPLLQRDQIQGWKAIWSQDGGWLAAAKAINAIGQFLKERGVKFGFGGAGSFKQPLFDDEGTTCIGVETADGTKYYADKVVLAAGAWSPTLVDLEDQCCSKAWVYAHIQLTPEEAAEYKGVPVVYNGEFGFFFEPDEFGVIKVCDEFPGFSRFKEHQPYGAPSPKRISVPRSHAKHPTDTYPDASEVSIKKAIATFLPRFQDKELFNRALCWCTDTADAALLMCEHPKWKNFILATGDSGHSFKILPNVGKYVVELIEGRLPEEMAYQWRWRPGGDALKSRRAAPPKDLADMPGWKHDPKL	0.018 U/mg	–	1.62 U/mg	specific activity on αF6P, fold over PnFX (Comparative Example 3) [1]: 2 times (Amadoriase 26/Comparative Example 3)
CFP-DH2 (protein) MTSNRADTRVIVVGGGGTIGSSTALHLVRSGYAPANITVLDTFPIPSAQSAGHDLNKIMGIDHRNKVNLQMSLEARQMWKEDELFQPFFHNTGRMDCEHTPKGIEKLKKLYQKLHDAGAGLEKTHAWLDNEDAILSKMPLLQRDQIQGWKAIWSQDGGWLAAAKAINAIGQFLKERGVKFGFGGAGSFKQPLFDDEGTTCIGVETADGTKYYADKVVLAAGAWSPTLVDLEDQCCSKAWVYAHIQLTPEEAAKYKGCPVVYHGEFGFFFEPDEFGVIKVCDEFPGFSRFKEHQPYGAPSPKRISVPRSHAKHPTDTYPDASEVSIKKAIATFLPRFKDKPLFNRALCWCTDTADSTLLMCEHPKWKNFILATGDSGHSFKILPNVGKYVVELIEGRLPEEMAYQWRWRPGGDALKSRRAAPPKDLADMPGWKHD	5.3 U/mg	–	–	ΔA at 751 nm against HbA1c concentration; cationic-surfactant-treated sample (Reagent G1 or G2) (hemoglobin A1c, P68871): In both cases where the sample was diluted with either Reagent G1 or Reagent G2, a good correlation was established between the HbA1c concentration and ΔA
